Experimental data taken from the Human Domainome abundance scans (Beltran et al. 2025).
± gives the uncertainty stated by the source.

B1: Glucocorticoid receptor, residues 419 to 494; numbered along this chain, P04150 (parent)
chain: KLCLVCSDEASGCHYGVLTCGSCKVFFKRAVEGQHNYLCAGRNDCIIDKIRRKNCPACRYRKCLQAGMNLEARKTK

Variants of: B1
Assay: abundance fitness (aPCA) (normalised: wild type 0, dead -1); higher = more abundant; growth selection in yeast, the domain comes from the species named
Conditions: Homo sapiens

Variant | abundance fitness
KLCLVCSDEASGCHYGVLTCGSCKVFFRRAVEGQHNYLCAGRNDCIIDKIRRKNCPACRYRKCLQAGMNLEARKTK | -0.034 ± 0.033
KLCLVCSDEASGCHYGVLTCGSCKVFFTRAVEGQHNYLCAGRNDCIIDKIRRKNCPACRYRKCLQAGMNLEARKTK | 0.001 ± 0.042
KLCLVCSDEASGCHYGVLTCGSCKVFFQRAVEGQHNYLCAGRNDCIIDKIRRKNCPACRYRKCLQAGMNLEARKTK | 0.014 ± 0.056
KLCLVCSDEASGCHYGVLTCGSCKVFFGRAVEGQHNYLCAGRNDCIIDKIRRKNCPACRYRKCLQAGMNLEARKTK | -0.051 ± 0.031
KLCLVCSDEASGCHYGVLTCGSCKVFFPRAVEGQHNYLCAGRNDCIIDKIRRKNCPACRYRKCLQAGMNLEARKTK | -0.243 ± 0.047
KLCLVCSDEASGCHYGVLTCGSCKVFFLRAVEGQHNYLCAGRNDCIIDKIRRKNCPACRYRKCLQAGMNLEARKTK | -0.022 ± 0.036
KLCLVCSDEASGCHYGVLTCGSCKVFFNRAVEGQHNYLCAGRNDCIIDKIRRKNCPACRYRKCLQAGMNLEARKTK | -0.063 ± 0.058
KLCLVCSDEASGCHYGVLTCGSCKVFFYRAVEGQHNYLCAGRNDCIIDKIRRKNCPACRYRKCLQAGMNLEARKTK | 0.001 ± 0.069
KLCLVCSDEASGCHYGVLTCGSCKVFFCRAVEGQHNYLCAGRNDCIIDKIRRKNCPACRYRKCLQAGMNLEARKTK | -0.121 ± 0.069
KLCLVCSDEASGCHYGVLTCGSCKVFFDRAVEGQHNYLCAGRNDCIIDKIRRKNCPACRYRKCLQAGMNLEARKTK | -0.061 ± 0.069
KLCLVCSDEASGCHYGVLTCGSCKVFFARAVEGQHNYLCAGRNDCIIDKIRRKNCPACRYRKCLQAGMNLEARKTK | -0.056 ± 0.036
KLCLVCSDEASGCHYGVLTCGSCKVFFFRAVEGQHNYLCAGRNDCIIDKIRRKNCPACRYRKCLQAGMNLEARKTK | -0.086 ± 0.086
KLCLVCSDEASGCHYGVLTCGSCKVFFMRAVEGQHNYLCAGRNDCIIDKIRRKNCPACRYRKCLQAGMNLEARKTK | -0.002 ± 0.049
KLCLVCSDEASGCHYGVLTCGSCKVFFIRAVEGQHNYLCAGRNDCIIDKIRRKNCPACRYRKCLQAGMNLEARKTK | -0.064 ± 0.078
KLCLVCSDEASGCHYGVLTCGSCKVFFSRAVEGQHNYLCAGRNDCIIDKIRRKNCPACRYRKCLQAGMNLEARKTK | -0.068 ± 0.044
KLCLVCSDEASGCHYGVLTCGSCKVFFERAVEGQHNYLCAGRNDCIIDKIRRKNCPACRYRKCLQAGMNLEARKTK | 0.007 ± 0.047
KLCLVCSDEASGCHYGVLTCGSCKVFFHRAVEGQHNYLCAGRNDCIIDKIRRKNCPACRYRKCLQAGMNLEARKTK | -0.001 ± 0.065
KLCLVCSDEASGCHYGVLTCGSCKVPFKRAVEGQHNYLCAGRNDCIIDKIRRKNCPACRYRKCLQAGMNLEARKTK | -0.872 ± 0.15

Variant | abundance fitness
KLCLVCSDEASGCHYGVLTCGSCKVEFKRAVEGQHNYLCAGRNDCIIDKIRRKNCPACRYRKCLQAGMNLEARKTK | -0.891 ± 0.12
KLCLVCSDEASGCHYGVLTCGSCKVNFKRAVEGQHNYLCAGRNDCIIDKIRRKNCPACRYRKCLQAGMNLEARKTK | -0.714 ± 0.28
KLCLVCSDEASGCHYGVLTCGSCKVDFKRAVEGQHNYLCAGRNDCIIDKIRRKNCPACRYRKCLQAGMNLEARKTK | -1.01 ± 0.26
KLCLVCSDEASGCHYGVLTCGSCKVTFKRAVEGQHNYLCAGRNDCIIDKIRRKNCPACRYRKCLQAGMNLEARKTK | -1.06 ± 0.18
KLCLVCSDEASGCHYGVLTCGSCKVYFKRAVEGQHNYLCAGRNDCIIDKIRRKNCPACRYRKCLQAGMNLEARKTK | -0.36 ± 0.12
KLCLVCSDEASGCHYGVLTCGSCKVLFKRAVEGQHNYLCAGRNDCIIDKIRRKNCPACRYRKCLQAGMNLEARKTK | -0.655 ± 0.075
KLCLVCSDEASGCHYGVLTCGSCKVGFKRAVEGQHNYLCAGRNDCIIDKIRRKNCPACRYRKCLQAGMNLEARKTK | -1 ± 0.11
KLCLVCSDEASGCHYGVLTCGSCKVMFKRAVEGQHNYLCAGRNDCIIDKIRRKNCPACRYRKCLQAGMNLEARKTK | -0.793 ± 0.14
KLCLVCSDEASGCHYGVLTCGSCKVSFKRAVEGQHNYLCAGRNDCIIDKIRRKNCPACRYRKCLQAGMNLEARKTK | -0.703 ± 0.076
KLCLVCSDEASGCHYGVLTCGSCKVKFKRAVEGQHNYLCAGRNDCIIDKIRRKNCPACRYRKCLQAGMNLEARKTK | -0.929 ± 0.14
KLCLVCSDEASGCHYGVLTCGSCKVQFKRAVEGQHNYLCAGRNDCIIDKIRRKNCPACRYRKCLQAGMNLEARKTK | -0.858 ± 0.17
KLCLVCSDEASGCHYGVLTCGSCKVAFKRAVEGQHNYLCAGRNDCIIDKIRRKNCPACRYRKCLQAGMNLEARKTK | -0.877 ± 0.099
KLCLVCSDEASGCHYGVLTCGSCKVCFKRAVEGQHNYLCAGRNDCIIDKIRRKNCPACRYRKCLQAGMNLEARKTK | -0.636 ± 0.17
KLCLVCSDEASGCHYGVLTCGSCKVVFKRAVEGQHNYLCAGRNDCIIDKIRRKNCPACRYRKCLQAGMNLEARKTK | -0.738 ± 0.084
KLCLVCSDEASGCHYGVLTCGSCKVWFKRAVEGQHNYLCAGRNDCIIDKIRRKNCPACRYRKCLQAGMNLEARKTK | -0.462 ± 0.065
KLCLVCSDEASGCHYGVLTCGSCKVHFKRAVEGQHNYLCAGRNDCIIDKIRRKNCPACRYRKCLQAGMNLEARKTK | -0.513 ± 0.16
KLCLVCSDEASGCHYGVLTCGSCKVRFKRAVEGQHNYLCAGRNDCIIDKIRRKNCPACRYRKCLQAGMNLEARKTK | -0.758 ± 0.071
KLCLVCSDEASGCHYGVLTCGSCKSFFKRAVEGQHNYLCAGRNDCIIDKIRRKNCPACRYRKCLQAGMNLEARKTK | -0.017 ± 0.05
